Reference: US20230329245A1, “COMPOSITIONS AND METHODS OF USE THEREOF” (Curie Co. Inc., priority 2020, published 2023)

Experiment: Colorimetric hydroxamate Tgase activity assay
Format: biochemical
Conditions: zymogen purified on Ni-IMAC resin and desalted
Description: The cells were lysed using a high-pressure homogenizer at pressures from 15000-20000 psi. The crude lysates were clarified through centrifugation at 15000×g for up to 60 minutes. The clarified lysate containing pro-Tgase SEQ ID NO:3 was evaluated by sodium dodecyl sulfate polyacrylamide gel electrophoresis (SDS-PAGE) and spectroscopy (A280 nm). The clarified lysate was further purified by affinity column on a Ni-IMAC resin and desalted.

B1: Pro-Tgase SEQ ID NO:3: variant of Streptomyces mobaraensis Tgase zymogen form (pro-Tgase), SEQ ID NO:3 (protein)
chain: MDNGAGEETKSYAETYRLTADDVANINALNESAPAASSAGPSFRAPDPDDRVTPPAEPLDRMPDPYRPSYGRAETVVNNYIRKWQQVYSHRDGRKQQMTEEQREWLSYGCVGVTWVNSGQYPTNRLAFASFDEDRFKNELKNGRPRSGETRAEFEGRVAKESFDEEKGFQRAREVASVMNRALENAHDESAYLDNLKKELANGNDALRNEDARSPFYSALRNTPSFKERNGGNHDPSRMKAVIYSKHFWSGQDRSSSADKRKYGDPDAFRPAPGTGLVDMSRDRNIPRSPTSPGEGFVNFDYGWFGAQTEADADKTVWTHGNHYHAPNGSLGAMHVYESKFRNWSEGYSDFDRGAYVITFIPKSWNTAPDKVKQGWPLEHHHHHH
Tgase activity (colorimetric hydroxamate activity assay): little to no activity
